Experimental findings from PMC10721106, “Structure of the siphophage neck–Tail complex suggests that conserved tail tip proteins facilitate receptor binding and tail assembly” (PLOS Biology, 2023) are described below.

The chains are these.
T1: cementing protein gpD (bacteriophage lambda), P03712
T1 chain: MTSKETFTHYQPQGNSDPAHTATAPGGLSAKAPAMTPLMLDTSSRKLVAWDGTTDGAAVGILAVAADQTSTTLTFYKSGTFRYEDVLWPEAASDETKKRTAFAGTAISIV

T2: tail tube protein gpV (bacteriophage lambda), P03733
T2 chain: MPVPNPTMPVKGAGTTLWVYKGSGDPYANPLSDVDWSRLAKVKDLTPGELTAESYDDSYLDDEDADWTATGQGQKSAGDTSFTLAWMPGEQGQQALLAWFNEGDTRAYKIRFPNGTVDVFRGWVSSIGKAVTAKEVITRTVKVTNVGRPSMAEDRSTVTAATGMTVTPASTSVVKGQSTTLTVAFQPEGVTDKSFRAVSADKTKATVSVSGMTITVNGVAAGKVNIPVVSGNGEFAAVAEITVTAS

B1: cementing protein gpD (natural protein)
chain: T1 chain
notes: cementing (decoration) protein gpD of bacteriophage lambda, trimers on the capsid shell of the mature virion; also called head protein gpD; source: lambda W60 phage grown on E. coli MG1655; virions purified (PEG 8000 precipitation, CsCl gradient)
B2: tail terminal protein gpU (natural protein, bacteriophage lambda, UniProt P03732 1-131, looked up)
chain: MKHTELRAAVLDALEKHDTGATFFDGRPAVFDEADFPAVAVYLTGAEYTGEELDSDTWQAELHIEVFLPAQVPDSELDAWMESRIYPVMSDIPALSDLITSMVASGYDYRRDDDAGLWSSADLTYVITYEM
notes: tail terminal protein gpU of bacteriophage lambda; all 131 residues modelled; O-loop 25-37, E-loop 45-58; also called tail terminator; source: lambda W60 phage grown on E. coli MG1655; virions purified (PEG 8000 precipitation, CsCl gradient)
B3: tail tube protein gpV, P03733 1-246 (natural protein)
chain: T2 chain
B4: tape measure protein gpH (natural protein, bacteriophage lambda, UniProt P03736 1-853, looked up)
chain: MAEPVGDLVVDLSLDAARFDEQMARVRRHFSGTESDAKKTAAVVEQSLSRQALAAQKAGISVGQYKAAMRMLPAQFTDVATQLAGGQSPWLILLQQGGQVKDSFGGMIPMFRGLAGAITLPMVGATSLAVATGALAYAWYQGNSTLSDFNKTLVLSGNQAGLTADRMLVLSRAGQAAGLTFNQTSESLSALVKAGVSGEAQIASISQSVARFSSASGVEVDKVAEAFGKLTTDPTSGLTAMARQFHNVSAEQIAYVAQLQRSGDEAGALQAANEAATKGFDDQTRRLKENMGTLETWADRTARAFKSMWDAVLDIGRPDTAQEMLIKAEAAYKKADDIWNLRKDDYFVNDEARARYWDDREKARLALEAARKKAEQQTQQDKNAQQQSDTEASRLKYTEEAQKAYERLQTPLEKYTARQEELNKALKDGKILQADYNTLMAAAKKDYEATLKKPKQSSVKVSAGDRQEDSAHAALLTLQAELRTLEKHAGANEKISQQRRDLWKAESQFAVLEEAAQRRQLSAQEKSLLAHKDETLEYKRQLAALGDKVTYQERLNALAQQADKFAQQQRAKRAAIDAKSRGLTDRQAEREATEQRLKEQYGDNPLALNNVMSEQKKTWAAEDQLRGNWMAGLKSGWSEWEESATDSMSQVKSAATQTFDGIAQNMAAMLTGSEQNWRSFTRSVLSMMTEILLKQAMVGIVGSIGSAIGGAVGGGASASGGTAIQAAAAKFHFATGGFTGTGGKYEPAGIVHRGEFVFTKEATSRIGVGNLYRLMRGYATGGYVGTPGSMADSRSQASGTFEQNNHVVINNDGTNGQIGPAALKAVYDMARKGARDEIQTQMRDGGLFSGGGR
notes: tape measure protein gpH of bacteriophage lambda in the virion; only a C-terminal α-helix modelled (residues 818-842 in the results, 818-849 in the methods); source: lambda W60 phage grown on E. coli MG1655; virions purified (PEG 8000 precipitation, CsCl gradient)
B5: stopper protein gpFII (natural protein, bacteriophage lambda)
chain: MADFDNLFDAAIARADETIRGYMGTSATITSGEQSGAVIRGVFDDPENISYAGQGVRVEGSSPSLFVRTDEVRQLRRGDTLTIGEENFWVDRVSPDDGGSCHLWLGRGVPPAVNRRR
notes: stopper protein gpFII of bacteriophage lambda, 117-residue protein, residues 4-117 resolved; domains: N-terminal α-helix 4-24, β-sandwich 25-41 and 63-107, β-hairpin 46-62, C-terminal loop 108-117; also called neck protein gpFII; source: lambda W60 phage grown on E. coli MG1655; virions purified (PEG 8000 precipitation, CsCl gradient)
B6: distal tail protein gpM (natural protein, bacteriophage lambda, UniProt P03737 1-109, looked up)
chain: MKTFRWKVKPGMDVASVPSVRKVRFGDGYSQRAPAGLNANLKTYSVTLSVPREEATVLESFLEEHGGWKSFLWTPPYEWRQIKVTCAKWSSRVSMLRVEFSAEFEQVVN
notes: distal tail protein gpM of bacteriophage lambda; all 109 residues resolved; two conformers that differ in the E-loop; source: lambda W60 phage grown on E. coli MG1655; virions purified (PEG 8000 precipitation, CsCl gradient)
B7: portal protein gpB (natural protein, bacteriophage lambda, UniProt P03710 23-533, looked up)
chain: GYHGGGSGFGGQLRSWNPPSESVDAALLPNFTRGNARADDLVRNNGYAANAIQLHQDHIVGSFFRLSHRPSWRYLGIGEEEARAFSREVEAAWKEFAEDDCCCIDVERKRTFTMMIREGVAMHAFNGELFVQATWDTSSSRLFRTQFRMVSPKRISNPNNTGDSRNCRAGVQINDSGAALGYYVSEDGYPGWMPQKWTWIPRELPGGRASFIHVFEPVEDGQTRGANVFYSVMEQMKMLDTLQNTQLQSAIVKAMYAATIESELDTQSAMDFILGANSQEQRERLTGWIGEIAAYYAAAPVRLGGAKVPHLMPGDSLNLQTAQDTDNGYSVFEQSLLRYIAAGLGVSYEQLSRNYAQMSYSTARASANESWAYFMGRRKFVASRQASQMFLCWLEEAIVRRVVTLPSKARFSFQEARSAWGNCDWIGSGRMAIDGLKEVQEAVMLIEAGLSTYEKECAKRGDDYQEIFAQQVRETMERRAAGLKPPAWAAAAFESGLRQSTEEEKSDSRAA
notes: portal protein gpB of bacteriophage lambda in the mature virion; modelled without 23 N-terminal residues, 20 C-terminal residues and the loop 303-319; domains: wing 24-249 and 368-452, stem 250-279 and 343-367, clip 280-342, crown 453-511; source: lambda W60 phage grown on E. coli MG1655; virions purified (PEG 8000 precipitation, CsCl gradient); copies: 12
B8: adaptor protein gpW (natural protein, bacteriophage lambda)
chain: MTRQEELAAARAALHDLMTGKRVATVQKDGRRVEFTATSVSDLKKYIAELEVQTGMTQRRRGPAGFYV
notes: adaptor protein gpW of bacteriophage lambda, 68-residue protein, residues 4-68 resolved; domains: β-hairpin 23-36, two-α-helix bundle 4-22 and 37-54, C-arm 55-68; also called neck protein gpW; source: lambda W60 phage grown on E. coli MG1655; virions purified (PEG 8000 precipitation, CsCl gradient); copies: 12
B9: insertion protein gpI (natural protein, bacteriophage lambda, UniProt P03730 1-223, looked up)
chain: MAATHTLPLASPGMARICLYGDLQRFGRRIDLRVKTGAEAIRALATQLPAFRQKLSDGWYQVRIAGRDVSTSGLTAQLHETLPDGAVIHIVPRVAGAKSGGVFQIVLGAAAIAGSFFTAGATLAAWGAAIGAGGMTGILFSLGASMVLGGVAQMLAPKARTPRIQTTDNGKQNTYFSSLDNMVAQGNVLPVLYGEMRVGSRVVSQEISTADEGDGGQVVVIGR
notes: insertion protein gpI of bacteriophage lambda in the virion; source: lambda W60 phage grown on E. coli MG1655; virions purified (PEG 8000 precipitation, CsCl gradient)
B10: central fiber protein gpJ (natural protein, bacteriophage lambda, UniProt P03749 1-1132, looked up)
chain: MGKGSSKGHTPREAKDNLKSTQLLSVIDAISEGPIEGPVDGLKSVLLNSTPVLDTEGNTNISGVTVVFRAGEQEQTPPEGFESSGSETVLGTEVKYDTPITRTITSANIDRLRFTFGVQALVETTSKGDRNPSEVRLLVQIQRNGGWVTEKDITIKGKTTSQYLASVVMGNLPPRPFNIRMRRMTPDSTTDQLQNKTLWSSYTEIIDVKQCYPNTALVGVQVDSEQFGSQQVSRNYHLRGRILQVPSNYNPQTRQYSGIWDGTFKPAYSNNMAWCLWDMLTHPRYGMGKRLGAADVDKWALYVIGQYCDQSVPDGFGGTEPRITCNAYLTTQRKAWDVLSDFCSAMRCMPVWNGQTLTFVQDRPSDKTWTYNRSNVVMPDDGAPFRYSFSALKDRHNAVEVNWIDPNNGWETATELVEDTQAIARYGRNVTKMDAFGCTSRGQAHRAGLWLIKTELLETQTVDFSVGAEGLRHVPGDVIEICDDDYAGISTGGRVLAVNSQTRTLTLDREITLPSSGTALISLVDGSGNPVSVEVQSVTDGVKVKVSRVPDGVAEYSVWELKLPTLRQRLFRCVSIRENDDGTYAITAVQHVPEKEAIVDNGAHFDGEQSGTVNGVTPPAVQHLTAEVTADSGEYQVLARWDTPKVVKGVSFLLRLTVTADDGSERLVSTARTTETTYRFTQLALGNYRLTVRAVNAWGQQGDPASVSFRIAAPAAPSRIELTPGYFQITATPHLAVYDPTVQFEFWFSEKQIADIRQVETSTRYLGTALYWIAASINIKPGHDYYFYIRSVNTVGKSAFVEAVGRASDDAEGYLDFFKGKITESHLGKELLEKVELTEDNASRLEEFSKEWKDASDKWNAMWAVKIEQTKDGKHYVAGIGLSMEDTEEGKLSQFLVAANRIAFIDPANGNETPMFVAQGNQIFMNDVFLKRLTAPTITSGGNPPAFSLTPDGKLTAKNADISGSVNANSGTLSNVTIAENCTINGTLRAEKIVGDIVKAASAAFPRQRESSVDWPSGTRTVTVTDDHPFDRQIVVLPLTFRGSKRTVSGRTTYSMCYLKVLMNGAVIYDGAANEAVQVFSRIVDMPAGRGNVILTFTLTSTRHSADIPPYTFASDVQVMVIKKQALGISVV
notes: central fiber protein gpJ of bacteriophage lambda in the virion; domains HDII, HDII-insertion (with FNIII-A, residues 72-215), HDIII, HDIV (with a β-sandwich, residues 483-569), linker, FNIII-1, FNIII-2, three-helix bundle; source: lambda W60 phage grown on E. coli MG1655; virions purified (PEG 8000 precipitation, CsCl gradient)
B11: coat protein gpE (natural protein, bacteriophage lambda, UniProt P03713 1-341, looked up)
chain: MSMYTTAQLLAANEQKFKFDPLFLRLFFRESYPFTTEKVYLSQIPGLVNMALYVSPIVSGEVIRSRGGSTSEFTPGYVKPKHEVNPQMTLRRLPDEDPQNLADPAYRRRRIIMQNMRDEELAIAQVEEMQAVSAVLKGKYTMTGEAFDPVEVDMGRSEENNITQSGGTEWSKRDKSTYDPTDDIEAYALNASGVVNIIVFDPKGWALFRSFKAVKEKLDTRRGSNSELETAVKDLGKAVSYKGMYGDVAIVVYSGQYVENGVKKNFLPDNTMVLGNTQARGLRTYGCIQDADAQREGINASARYPKNWVTTGDPAREFTMIQSAPLMLLADPDEFVSVQLA
notes: major capsid (coat) protein gpE of bacteriophage lambda, as it stands in the mature virion; The introduction gives 415 copies in the head (cited); also called major capsid protein gpE; head protein gpE; source: lambda W60 phage grown on E. coli MG1655; virions purified (PEG 8000 precipitation, CsCl gradient)

The target of data set [1] is T1, cementing protein gpD (bacteriophage …). As to the kind of experiment: cryo-EM structure; purified lambda virions; icosahedral reconstruction of the head, 3.5 Å. Conditions: remark: other sources report otherwise.
Data set [2] concerns the target B11. Described as above. Conditions: both partners purified.
Data set [3] deals with the molecule itself. As to the kind of experiment: cryo-EM structure; purified lambda virions; local reconstruction of the neck: gpFII, gpU and 2 proximal gpV rings, 3.5 Å.
The target in data set [4] is T2, tail tube protein gpV (bacteriophage …). As to the kind of experiment: cryo-EM structure; purified lambda virions; local reconstruction of the tail tube (RELION), 3.48 Å. Conditions: remark: other sources report otherwise.
Data set [5] concerns the molecule itself. As to the kind of experiment: cryo-EM structure; purified lambda virions; local reconstruction of the tail tip complex with C3 symmetry (RELION), 3.44 Å.
For data set [6], the target named is B2. As to the kind of experiment: cryo-EM structure; purified lambda virions; local reconstruction of the neck: gpFII, gpU and 2 proximal gpV rings, 3.5 Å. Particulars: both partners purified.
Data set [7] concerns the molecule itself. Nature of the data set: cryo-EM structure; purified lambda virions; local reconstruction of the gpB (portal) and gpW (adaptor) rings with 12-fold symmetry, 3.2 Å.
Data set [8] concerns the molecule itself. As to the kind of experiment: cryo-EM structure; purified lambda virions; icosahedral reconstruction of the head, 3.5 Å.

The stoichiometry N is a count of units in the complex or per binding partner. Molecule B1 had a stoichiometry N in data set [1] of 3. In addition, in data set [2], the binding result was “binds”.
Consider B2, for which the “stoichiometry N” value in data set [3] was determined as 6.
With B3, in data set [4], the stoichiometry N was determined as 6.
Take B4: the “stoichiometry N” value in data set [5] was found to be 3.
With B5, the binding result in data set [6] was “binds”. The “stoichiometry N” value in data set [3] is 6.
As to B6, in data set [5], the “stoichiometry N” value was 6.
Turning to B7, in data set [7], the “stoichiometry N” value turned out to be 12.
In the case of B8, in data set [7], the “stoichiometry N” value amounted to 12.
For the molecule B9, the “stoichiometry N” value in data set [5] amounted to 3.
On to B10, for which, in data set [5], the “stoichiometry N” value stood at 3.
Consider B11, for which the binding result in data set [8] is “binds”.
